Test results from patent publication US11466080B2, “Methods of treating cancer using anti-LRP1 polyclonal antibodies” (Children's Medical Center Corporation, priority 2017, dated 2022).
Where two headings read alike, the source gives them in different places.

How the values were obtained:
Tsp-1 [1] = assay: Western blot of Tsp-1 in lung fibroblasts treated with LN4 conditioned media; assay type: cell-based; settings: WI38 cells, LN4 CM with Rac1 inhibitor
Text: FIG. 11. Western blot analysis of Tsp-1 and β-actin expression in lung fibroblasts that were untreated (−) or treated with LN4 CM alone or in combination with STI.
FIG. 12. Western blot analysis of Tsp-1 and β-actin expression in lung fibroblasts that is were untreated (−) or treated with LN4 CM alone or in combination with Rac1 inhibitor.
Attention was then turned to the mechanism by which PC3M-LN4 cells repress Tsp-1 in the tumor microenvironment. In doing so, LN4 conditioned media (CM) was fractionated over a Cu^2+/heparin sepharose column with increasing concentrations of NaCl. The eluted fractions were used to treat lung fibroblasts and Tsp-1 induction was analyzed by western blot. […] By analyzing the protein content of the eluted fractions by tandem liquid chromatography/mass spectrometry (LC/MS), a protein was identified that was present in the active fractions of LN4 CM, but not present in the adjacent fractions or the fractions eluted with the same NaCl concentrations from PC3 CM. The identified protein was the serine protease PRSS2. […] Finally, the signaling pathway emanating from LRP1 that was mediating the PRSS2-induced repression of Tsp-1 was sought to be delineated. […]

Tsp-1 [2] = assay: Western blot of Tsp-1 in lung fibroblasts treated with psap peptide; assay type: cell-based; settings: peptide with 25 or 50 μg rhRAP or with Y27632
Method: FIGS. 8A-8B. Western blot analysis of Tsp-1 and β-actin expression in lung fibroblasts, which were (FIG. 8A) untreated (−) or treated with psap peptide alone or in combination with 25 or 50 μg of rhRAP, and (FIG. 8B) untreated (−) or treated with psap peptide alone or with Y27632.
In order to delineate the pathway leading from LRP1 to Tsp-1 stimulation by prosaposin, two pathways that have been reported to be stimulated by LRP1 under different conditions were chosen to be examined: Rho and Rac.

prosaposin (PSAP) = target: T1, prosaposin (PSAP) (Homo sapiens, UniProt P07602); assay: Co-immunoprecipitation of LRP1 peptides with PSAP; assay type: binding
T1 sequence (P07602 60-524): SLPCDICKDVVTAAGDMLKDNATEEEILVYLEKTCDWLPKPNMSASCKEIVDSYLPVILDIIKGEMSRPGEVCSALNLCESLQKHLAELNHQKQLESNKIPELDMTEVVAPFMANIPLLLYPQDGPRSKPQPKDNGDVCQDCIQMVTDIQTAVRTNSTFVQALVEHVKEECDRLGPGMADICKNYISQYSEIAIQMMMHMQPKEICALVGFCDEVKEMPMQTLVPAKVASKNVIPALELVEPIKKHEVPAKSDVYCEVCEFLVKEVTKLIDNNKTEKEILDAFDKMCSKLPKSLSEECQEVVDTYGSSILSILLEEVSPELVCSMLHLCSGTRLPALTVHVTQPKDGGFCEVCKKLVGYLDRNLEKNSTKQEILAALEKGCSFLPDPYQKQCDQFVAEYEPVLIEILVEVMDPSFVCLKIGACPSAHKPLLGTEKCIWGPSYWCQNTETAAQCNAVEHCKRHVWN
Method: (§1) FIGS. 16A-16B. Co-immunoprecipitation of LRP1 peptides with PSAP (FIG. 16A) or PRSS2 (FIG. 16B).
(§2) To map the binding sites on LRP1 that binds to prosaposin (PSAP) and/or PRSS2, peptides derived from binding domain I of LRP1 (SEQ ID NOs: 3 and 7-18) were tested for their ability to co-immunoprecipitate with PSAP or PRSS2.

PRSS2 = PRSS2 (Homo sapiens, UniProt P07478); assay: Co-immunoprecipitation of LRP1 peptides with PRSS2; assay type: binding
Sequence of PRSS2 (P07478 16-247 limits assumed): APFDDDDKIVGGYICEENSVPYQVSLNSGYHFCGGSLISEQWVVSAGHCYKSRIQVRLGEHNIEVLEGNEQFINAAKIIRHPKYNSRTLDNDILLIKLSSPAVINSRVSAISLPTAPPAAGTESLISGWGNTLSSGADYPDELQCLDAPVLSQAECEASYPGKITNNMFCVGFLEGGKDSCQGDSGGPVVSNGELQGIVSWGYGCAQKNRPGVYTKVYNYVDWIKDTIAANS
Method: as §1, §2

Tsp-1 [3] = assay: Western blot of Tsp-1 in prostate fibroblasts treated with PC3-conditioned media; assay type: cell-based
Text: (§3) FIGS. 6A-6B. Western blot analysis of: (FIG. 6A) Tsp-1 and β-actin expression in prostate fibroblasts that were untreated (−) or treated with conditioned media from PC3 cells alone or in combination with RAP, and (FIG. 6B) Tsp-1, p53 and β-actin expression in prostate fibroblasts that were untreated (−) or treated with conditioned media from PC3 cells alone or in combination with the PKC inhibitor Gδ 6983 (PKCi).
(§4) Thus, in order to determine how prosaposin was able to stimulate the expression of Tsp-1 and p53 in tumor-associated fibroblasts, prostate fibroblasts were treated with PC3-conditioned media in the presence and absence of Receptor Associate Protein (RAP), a competitive inhibitor or LRP1 binding. […] To determine whether prosaposin-mediated stimulation of Tsp-1 utilized this pathway, fibroblasts were treated with CM from PC3 cells in the presence and absence of the PKC inhibitor Gö 6983. […] Thus, it is believed that Prosaposin functions via binding to LRP1.

p53 = assay: Western blot of p53 in prostate fibroblasts treated with PC3-conditioned media; assay type: cell-based
Text: as §3, §4

Molecule: CCN(CC)CCCC(C)Nc1nc(C)cc(Nc2ccc3nc(C)cc(N)c3c2)n1 (racemic) [Rac1 inhibitor]
- Tsp-1 levels under LN4 CM in presence of the substance (Tsp-1 [1]): restored to basal levels

Molecule: C[C@@H](N)[C@H]1CC[C@H](C(=O)Nc2ccncc2)CC1 [Peptide Y27632, Y27632, reference compound]
- effect of co-treatment on stimulation of Tsp-1 by the peptide (Tsp-1 [2]): completely abrogated

Molecule: Peptide 12: amino acids 140-164 of LRP1, SEQ ID NO: 18, YGTCSQLCTNTDGSFICGCVEGYLL
- binding to PSAP (co-immunoprecipitation) (prosaposin (PSAP); listed as peptide 12): bind to both PRSS2 and PSAP
- binding to PRSS2 (co-immunoprecipitation) (PRSS2): Peptide 12 (amino acids 140-164 of LRP1, binds to
- binding to PRSS2 (co-immunoprecipitation) (PRSS2; listed as peptide 12): bind to both PRSS2 and PSAP

Molecule: COc1ccc2c(c1)c(C1=C(c3c[nH]c4ccccc34)C(=O)NC1=O)cn2CCCN(C)C [Gö 6983, reference compound]
- stimulation of Tsp-1 by PC3-conditioned media in the presence of the substance (Tsp-1 [3]): abolished the stimulation of Tsp-1 and p53
- stimulation of p53 by PC3-conditioned media in the presence of the substance (p53): abolished the stimulation of Tsp-1 and p53

Molecule: Peptide 13: amino acids 151-172 of LRP1, SEQ ID NO: 3, FICGCVEGYLLQPDNRSCKAKN
- binding to PSAP (co-immunoprecipitation) (prosaposin (PSAP); listed as peptide 13): bind to both PRSS2 and PSAP
- binding to PRSS2 (co-immunoprecipitation) (PRSS2; listed as peptide 13): bind to both PRSS2 and PSAP

B1: RAP: Receptor Associate Protein (RAP), a competitive inhibitor or LRP1 binding (protein, UniProt P30533 35-357, looked up)
Alpha-2-macroglobulin …: YSREKNQPKPSPKRESGEEFRMEKLNQLWEKAQRLHLPPVRLAELHADLKIQERDELAWKKLKLDGLDEDGEKEARLIRNLNVILAKYGLDGKKDARQVTSNSLSGTQEDGLDDPRLEKLWHKAKTSGKFSGEELDKLWREFLHHKEKVHEYNVLLETLSRTEEIHENVISPSDLSDIKGSVLHSRHTELKEKLRSINQGLDRLRRVSHQGYSTEAEFEEPRVIDLWDLAQSANLTDKELEAFREELKHFEAKIEKHNHYQKQLEIAHEKLRHAESVGDGERVSRSREKHALLEGRTKELGYTVKKHLQDLSGRISRARHNEL
- stimulation of Tsp-1 by PC3-conditioned media in the presence of the substance (Tsp-1 [3]): no longer stimulated Tsp-1
- effect of co-treatment on stimulation of Tsp-1 by the peptide (Tsp-1 [2]): blocked the stimulation of Tsp-1 in a dose-dependent fashion
